Source: PMC4824069

Molecular target: HEY1 (UniProt Q9Y5J3)
Assay: co-IP of Flag-DPF3a and HA-HEY1
Details: reference: wild type; sites S348

Sequence of UniProt Q9Y5J3 (Q9Y5J3 whole entry, looked up): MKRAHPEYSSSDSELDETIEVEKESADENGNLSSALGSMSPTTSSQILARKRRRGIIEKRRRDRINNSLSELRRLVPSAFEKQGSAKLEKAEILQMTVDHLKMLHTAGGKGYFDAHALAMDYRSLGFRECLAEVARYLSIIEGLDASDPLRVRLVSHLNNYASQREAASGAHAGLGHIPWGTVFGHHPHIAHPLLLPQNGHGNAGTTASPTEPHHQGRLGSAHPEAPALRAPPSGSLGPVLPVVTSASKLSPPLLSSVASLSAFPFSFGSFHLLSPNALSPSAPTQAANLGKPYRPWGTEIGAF

binding against the reference: weaker
Substance: DPF3a (BAF45c1) (from UniProt Q92784-2) S348A
